# B1: Candida albicans Pra1 (recombinant, full-length excluding the signal peptide) (natural protein, UniProt P87020 16-299, looked up)
# chain: APVTVTRFVDASPTGYDWRADWVKGFPIDSSCNATQYNQLSTGLQEAQLLAEHARDHTLRFGSKSPFFRKYFGNETASAEVVGHFDNVVGADKSSILFLCDDLDDKCKNDGWAGYWRGSNHSDQTIICDLSFVTRRYLTQLCSSGYTVSKSKTNIFWAGDLLHRFWHLKSIGQLVIEHYADTYEEVLELAQENSTYAVRNSNSLIYYALDVYAYDVTIPGEGCNGDGTSYKKSDFSSFEDSDSGSDSGASSTASSSHQHTDSNPSATTDANSHCHTHADGEVHC
# modifications: N-linked glycosylation at Asn48, Asn89, Asn135 and Asn208; three intramolecular disulphide bonds
# Target: the molecule itself
# Experiment: cryo-EM structure
protein,measurement,value
B1,stoichiometry N,6

# From paper PMC11741385 (bioRxiv, 2025)
